# Data as given in the supplement of paper PMC12042874.
# ± gives the uncertainty stated by the source.
# Assay: amyloid nucleation score (Sup35N fusion, yeast selection) (log enrichment); library NNK1; higher = more nucleation; inactive = no reads after selection
# Method in brief: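 For the nucleation score, DiMSum gave the log enrichment of output over input reads, centred on the mode score of non-aggregating sequences. Psi-negative yeast expressing Sup35N fused to peptides of 20 random codons were induced with 100 μM copper sulfate for 24 hours and grown 7 days at 30°C on medium lacking adenine and uracil. Input and output plasmid inserts were Illumina-sequenced, and sequences with under 100 input reads were excluded.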
row,Substance,amyloid nucleation score
1,RHSITLFLVTVETVRACVFK,-0.714 ± 1.2
2,KRLGWSSVFRLARVERVLRS,-0.929 ± 1.9
3,CRSFYIIEIVKMGPNGRKGV,-1 ± 0.78
4,RNSMGLLAVEDVC,-1.16 ± 0.61
5,IKYVQIGRRRLKWGGERRPL,0.311 ± 0.37
6,WTISSKGFFCWINCGLLQKR,5.704 ± 0.05
7,IRRSHSEVPVVA,0.22 ± 0.37
8,KLHNILLWNCLVFLCVMYVW,inactive
9,YWGLQPFMIY,0.272 ± 0.74
10,HNGRVFVMRWLYGVLGECG,-1.31 ± 1.1
11,DRYYAGF,0.464 ± 0.55
12,TWGSGY,-0.797 ± 0.93
13,YSLSPTKLGFSERLDSNEVV,0.225 ± 0.62
14,DLADNVRKMGEFTSSVANIL,0.204 ± 0.4
15,SMVPQTMGVSQESRCYAGSC,-0.215 ± 0.65
16,SNECLRNGAFYDCPVREAWM,-0.346 ± 0.27
17,IISPYHLLLIKYRSSCSLLH,0.985 ± 0.33
18,TLKHLNATISHT,1.1 ± 0.71
19,QLFVRFGRSARLVIAESQKA,-0.077 ± 0.33
20,LLLGW,-0.102 ± 0.32
21,RDTNKSIQ,0.208 ± 0.56
22,WQRNDQWMVVQVITVSV,0.176 ± 0.47
23,PQRRSHREKA,-0.557 ± 0.62
24,FFSMSSVTNKFSTSCRLNHS,3.18 ± 0.099
25,FIYMQSVCAWFISWNSFR,0.355 ± 0.86

row,Substance,amyloid nucleation score
1,GLGVVPITAERRVSLRYSEC,-0.242 ± 0.35
2,LFLMKANMELVNLYFRSEVR,-0.556 ± 0.52
3,NGFLHIRLRISALCELL,0.137 ± 0.57
4,PIHYEPSKAVYYTQFRGGMG,-0.184 ± 0.42
5,DTNVVWYYLSWDSPGNGDWK,inactive
6,KLCRFCNRVCYCQ,-0.691 ± 1
7,HDTDAKVQILNA,0.626 ± 0.69
8,LWSLDSDSCKVLGDSGCGFF,0.133 ± 0.34
9,RMLTARNGLGMMRL,-0.162 ± 1.1
10,PVLYNHCGVNLCPTLCLSNY,7.199 ± 0.053
11,YFSVYSRHRSIWTCGIVYSK,0.078 ± 0.49
12,DNMFDTWLSGATV,-0.554 ± 0.66
13,NTRYYFENNMR,-0.599 ± 0.4
14,RWGDHKQC,0.041 ± 0.41
15,HSKGYMARHDRAYGDSERVV,0.303 ± 0.77
16,MPDFSWA,-0.115 ± 1.2
17,MPAWFILGDVVL,1.2 ± 0.35
18,VVNLWTQADIMRSSCRLKHV,0.074 ± 0.19
19,FSCSVDLKSSHMEVARNGYP,inactive
20,DTNKNFSFSKAQ,-0.081 ± 0.37
21,IVGST,-0.894 ± 0.47
22,NKKKSLRWKGTGNGVPLVVQ,-0.399 ± 0.86
23,SDNTMSPKLCLMASWVRIST,0.418 ± 0.23
24,HAIGTQMVTLGLRSISFSWN,1.19 ± 0.67
25,CREVAKFGKLSNRQSRGCAI,-0.951 ± 1.4

row,Substance,amyloid nucleation score
1,INTSR,0.038 ± 0.23
2,NRFNRYNVFPVYDQNLESPL,0.205 ± 0.38
3,KELCGLRGYTFYEQF,0.588 ± 0.74
4,GRSYFVVGFLSELCEKWLTK,0.046 ± 1
5,SYMKQINTGKVFRAHYVLLA,0.117 ± 1.1
6,LDDAWRVWMHSL,0.981 ± 0.43
7,IMLQCYIVFCFRGRSLIRKA,-0.524 ± 0.36
8,SFCAYFVAGIAGNIRVS,0.098 ± 0.42
9,GAKEDERSNWSVVNMLGREL,-0.341 ± 0.39
10,ARYPRGDGVGDMSSRLIVVY,1.26 ± 0.2
11,FKRFLSLVCV,0.1 ± 0.53
12,SSTAEDTMWARGSNKTLYQS,0.148 ± 0.44
13,SLINTRVPPLENNAC,-0.443 ± 0.51
14,RVVRKPCFPGVGRILSADLA,0.958 ± 0.59
15,FEDEPGVSFWNSGGFK,-1.07 ± 0.62
16,RNCFMGRTVNSVSNYVESSW,inactive
17,AVVLLLNRTD,0.282 ± 0.59
18,NTSSFVSTNWSGFPWSGSRY,2.02 ± 0.24
19,LYFGNTGKGNFRQVSRLKHS,0.116 ± 0.73
20,HCRFWRTFDGSNGRNIENSD,0.986 ± 1.1
21,DVLVHLP,-0.917 ± 1.2
22,SSIMHSG,0.925 ± 1.1
23,MCTLDLD,0.824 ± 0.54
24,IWDSVLF,1.57 ± 0.33
25,DGDVE,-0.494 ± 0.74

row,Substance,amyloid nucleation score
1,IISLVNVWQNMCR,5.15 ± 0.077
2,FFRIARCHLEDRWVMIAGVL,0.118 ± 0.68
3,FWLIHGMIQMGYVK,-0.458 ± 1.2
4,AVYAAYFWGSI,-0.065 ± 0.69
5,SHNGCKIWGMDNLIVH,-0.616 ± 0.46
6,IRKRDFGYKSLFPNGTAMIH,-0.83 ± 0.88
7,EIASLTRCYRSYRIVSWLRG,0.341 ± 0.37
8,FFRRS,0.924 ± 0.26
9,LCLSSWGLTLSLLIDCIYNR,-0.53 ± 0.48
10,NNPDTMSI,0.44 ± 0.56
11,DATVQTWGDVKSGLWWVCCP,5.62 ± 0.098
12,SEMGYPGWTGKERKRLSNWA,-0.989 ± 0.8
13,YNMVFWTKFSLSWLLCLHGK,5.86 ± 0.088
14,VYPCACVFYSLGVGLQNEET,6.27 ± 0.089
15,SYMGSNSSYYCMRGWGRTWY,2.14 ± 0.095
16,ENFPPAQ,-0.691 ± 0.5
17,MVTCGYKDFK,-1.7 ± 1.5
18,CNMVHVVIERDGSGRRGCGL,5.38 ± 0.055
19,CFPFIFRIGFTNNGADSLVK,-0.507 ± 0.63
20,VLSVNAV,-0.482 ± 0.51
21,FYPLVTFFVLHHGNMNIHRV,6.778 ± 0.066
22,LRHLVIGNKNALLVWFRSHI,0.817 ± 0.52
23,NKEVNYTNIINCVGIRGCRL,4.77 ± 0.051
24,CWYLYRFSNTMMNRTTLPCG,-0.169 ± 0.53
25,IIMVRLFSRNGVEDC,1.61 ± 0.12

row,Substance,amyloid nucleation score
1,CPVRSRIVVRCLYFSHMRST,0.263 ± 1.1
2,VSPIMFAYSMSCMSFYGEHG,5.04 ± 0.1
3,SLITVSHMPWGCT,0.342 ± 0.36
4,KSEYWHSCYVANSPYDYRTV,-0.422 ± 1.2
5,AIDIYGYLRFPCWLRVLFT,-1.06 ± 0.45
6,LCFVVVTSHDRGMHVIKVET,-0.857 ± 0.51
7,SCLYQGCYLNCVIDIMGCGL,5.83 ± 0.089
8,TLSPTAGPAVVALILYGSLT,1.17 ± 0.65
9,YCNLIRFKFCVNSCCMSSSL,5.64 ± 0.078
10,QEDRGPLLHFRLNSYNVMTQ,0.471 ± 0.62
11,HYTLCCKFFNQHVGHAMQNE,1.87 ± 0.51
12,TRTNLVAPCIMEVLSNVHRY,inactive
13,IRTKILLLHKNQKTVVKGLG,0.073 ± 1.5
14,ALRKVYCSFIHNIWACSWAI,inactive
15,LSRSSWQQARICARVHGLGG,1.05 ± 0.58
16,SWDEAVSWHSRSVVSAGGVA,-0.813 ± 1.3
17,RENYRAGTFVYGSPRLGPAW,0.44 ± 0.88
18,FGRVRCLESEICSCGFFVDE,3.03 ± 0.15
19,DINWYTLDAHV,-1.86 ± 1.9
20,YSQYVVTSFTSLREVS,-0.332 ± 0.25
21,RLYSYVFSGSPHIGWHLCSM,3.82 ± 0.11
22,MNASITFSVLWVACETKCRV,3.42 ± 0.14
23,CVALGGLMAMLIASVIWENN,-0.354 ± 0.72
24,SGKYAFLFLVYCTGVLMKCW,-1.17 ± 1.7
25,WGTVYVPV,1.72 ± 0.49

row,Substance,amyloid nucleation score
1,GHKNTRILQV,-0.444 ± 1.9
2,WKKPIQGSVW,0.295 ± 0.49
3,SLVVVGCWLAANQESK,1.28 ± 0.33
4,WVLVSVH,0.211 ± 0.24
5,FSITLTPHRGSVMNIYTANV,1.59 ± 0.17
6,FAYKVLTLMNKPEGKVQSDV,-1.41 ± 2.4
7,IWCSVNEWQYRVKVV,0.03 ± 0.5
8,YVSDFKADTATLSSDLCQLA,-0.183 ± 0.73
9,MKTMRKW,inactive
10,LAYKNSLWGLLWKRF,-0.011 ± 0.49
11,TSHPGRCRGYASRASSEVFR,-0.038 ± 0.43
12,TYNRGMGGRISVFCLFTGVM,0.078 ± 0.21
13,DRRRVVNINARQSVNIRFRM,8.53 ± 0.044
14,DNWSMGYPEETGAWGVN,0.406 ± 0.45
15,ASFLRNVFWVIREYTLCEYV,0.647 ± 0.19
16,SLYNTLEVNDNKHRVNFLVA,0.652 ± 0.58
17,YFNVSWID,1.02 ± 0.38
18,AISVWMSMNGPITPDR,0.907 ± 0.59
19,RVAYSGEL,0.196 ± 0.83
20,LWSTMICLVFMYPIILVNFT,1.64 ± 0.36
21,WGVALRDAATAVDVGLVVRF,0.37 ± 0.62
22,RLTFKYIKFAMS,0.206 ± 0.36
23,VCLANGHWATHMHYIFHYLS,-0.915 ± 0.73
24,KLYNGLQHVQAGTLVMQ,0.46 ± 1.2
25,GHSFGTVTDCVANQYNFLNI,2.37 ± 0.19

row,Substance,amyloid nucleation score
1,DDSSDTEVRLGYALAGIKVG,-0.406 ± 0.34
2,MKVRQDRKPYWVAESAMCVC,-0.261 ± 0.59
3,EDALRIFRKETDPDL,0.681 ± 0.29
4,GWSNSFA,0.123 ± 0.44
5,CGVMDGYLTAK,-0.619 ± 0.32
6,WWVYRARFNCCHLYKVYLHC,0.221 ± 0.88
7,MTAIFSRSSQNFFVGW,7.154 ± 0.066
8,WLGLGVRALRSENVCCRAFH,1.1 ± 0.49
9,LSAMWKSPMHRERRTWGM,0.096 ± 0.42
10,PRNPMRSESILFCGNFVGRK,-0.759 ± 0.59
11,VYVFLADNGSDELLMLVLTG,0.12 ± 0.28
12,GSCDMKVVVKCHCEYGMKQD,2.24 ± 0.13
13,SAFSLIGLIVMNAGK,6.04 ± 0.076
14,WSGWAKPSHYVALGRVGSWE,-0.075 ± 0.63
15,GVKQEHVIPWQEVLGVITL,1.01 ± 0.84
16,SSSKGSMENYISYRSL,-0.703 ± 0.32
17,KLLDSSVVDSLRQHCEAGLR,0.075 ± 0.3
18,SHVLCSDTNTI,inactive
19,LDTYRVNWMMRLATYNMMVM,0.312 ± 0.4
20,SSTFCVAQYQSYWLCEVKWV,0.086 ± 1.4
21,SNSFYREVNWGNRT,0.216 ± 0.57
22,TELSEHVRSRLWSKG,0.355 ± 0.42
23,NECLWSSFYLIICFLVCYYY,0.278 ± 0.46
